Where no end group is shown, it is not given here. fluorescein = fluorescein, a fluorescent label on the peptide N-terminus
Experiments:
Test in all cases: fluorescence polarisation
[1] = target: T1, DegS H198P/P229A (E. coli, UniProt P0AEE3 27-355, H198P | P229A)
T1 sequence (looked up): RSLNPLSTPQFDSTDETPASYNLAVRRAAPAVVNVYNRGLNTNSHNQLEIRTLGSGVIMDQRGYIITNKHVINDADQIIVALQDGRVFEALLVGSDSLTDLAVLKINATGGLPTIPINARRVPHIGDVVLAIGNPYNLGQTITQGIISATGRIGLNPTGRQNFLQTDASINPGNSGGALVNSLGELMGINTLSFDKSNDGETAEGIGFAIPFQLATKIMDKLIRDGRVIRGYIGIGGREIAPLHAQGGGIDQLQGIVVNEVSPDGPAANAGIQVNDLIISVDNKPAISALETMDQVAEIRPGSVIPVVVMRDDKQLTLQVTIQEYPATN

[2] = target: T2, DegS P161A/H198P (E. coli, UniProt P0AEE3 27-355, P161A | H198P)
T2 sequence (looked up): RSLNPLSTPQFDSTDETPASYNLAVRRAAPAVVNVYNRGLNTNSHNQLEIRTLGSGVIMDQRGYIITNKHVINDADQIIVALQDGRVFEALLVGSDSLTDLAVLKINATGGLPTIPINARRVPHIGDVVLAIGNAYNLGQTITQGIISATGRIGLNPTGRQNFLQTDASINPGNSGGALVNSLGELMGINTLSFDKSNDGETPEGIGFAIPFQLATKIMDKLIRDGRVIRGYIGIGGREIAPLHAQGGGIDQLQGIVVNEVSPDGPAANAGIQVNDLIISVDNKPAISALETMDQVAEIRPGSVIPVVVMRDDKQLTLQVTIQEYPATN

[3] = target: T3, DegS H198P/I232A (E. coli, UniProt P0AEE3 27-355, H198P | I232A)
T3 sequence (looked up): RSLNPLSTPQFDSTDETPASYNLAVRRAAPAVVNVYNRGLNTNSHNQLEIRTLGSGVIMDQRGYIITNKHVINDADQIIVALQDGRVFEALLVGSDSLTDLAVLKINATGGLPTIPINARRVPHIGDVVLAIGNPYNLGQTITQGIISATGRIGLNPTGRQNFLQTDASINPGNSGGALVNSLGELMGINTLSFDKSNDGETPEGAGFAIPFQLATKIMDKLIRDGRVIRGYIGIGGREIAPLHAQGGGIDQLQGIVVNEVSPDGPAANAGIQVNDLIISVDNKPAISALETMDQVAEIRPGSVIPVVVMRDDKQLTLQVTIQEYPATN

[4] = target: T4, wild-type DegS (residues 27-355, without the membrane anchor) (E. coli, UniProt P0AEE3 27-355)
T4 sequence (looked up): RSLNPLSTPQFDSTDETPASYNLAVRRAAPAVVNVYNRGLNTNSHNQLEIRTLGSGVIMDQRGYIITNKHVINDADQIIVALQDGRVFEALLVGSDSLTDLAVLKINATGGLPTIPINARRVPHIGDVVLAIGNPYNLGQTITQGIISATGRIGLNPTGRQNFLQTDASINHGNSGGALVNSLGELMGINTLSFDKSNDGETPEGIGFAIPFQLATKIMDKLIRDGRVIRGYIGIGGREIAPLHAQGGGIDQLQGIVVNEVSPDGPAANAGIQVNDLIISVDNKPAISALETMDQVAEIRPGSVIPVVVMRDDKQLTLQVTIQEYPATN

[5] = target: T5, DegS T169A/H198P (E. coli, UniProt P0AEE3 27-355, T169A | H198P)
T5 sequence (looked up): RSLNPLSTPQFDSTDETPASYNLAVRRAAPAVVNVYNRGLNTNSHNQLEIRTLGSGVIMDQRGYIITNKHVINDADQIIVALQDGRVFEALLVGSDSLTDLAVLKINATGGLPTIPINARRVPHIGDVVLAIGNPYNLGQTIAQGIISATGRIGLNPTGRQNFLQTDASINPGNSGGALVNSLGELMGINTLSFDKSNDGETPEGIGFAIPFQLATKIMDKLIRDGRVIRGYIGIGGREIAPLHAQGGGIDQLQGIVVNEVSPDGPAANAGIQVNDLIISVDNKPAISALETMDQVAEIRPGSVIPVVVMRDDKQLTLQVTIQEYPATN

## fluorescein-DNRDGNVYYF [fluorescent OMP peptide fluorescein-DNRDGNVYYF]
[1]
  Kd: 2 ± 0.1 µM
[2]
  Kd: 2.5 ± 0.4 µM
[3]
  Kd: 2.7 ± 0.3 µM
[4]
  Kd: 4 ± 0.4 µM
[5]
  Kd: 2 ± 0.2 µM
